# Read-outs that look alike come from different tables or passages of the source.
# B1: TRAPβ, C-terminally tagged with SmBiT (natural protein)
# chain: EEGARLLASKSLLNRYAVEGRDLTLQYNIYNVGSSAALDVELSDDSFPPEDFGIVSGMLNVKWDRIAPASNVSHTVVLRPLKAGYFNFTSATITYLAQEDGPVVIGSTSAPGQGGILAQREFDRRFSPHFLDWAAFGVMTLPSIGIPLLLWYSSKRKYDTPKTKKN
# B2: TRAPα, C-terminally tagged with SmBiT (natural protein)
# chain: VLFRGGPRGLLAVAQDLTEDEETVEDSIIEDEDDEAEVEEDEPTDLVEDKEEEDVSGEPEASPSADTTILFVKGEDFPANNIVKFLVGFTNKGTEDFIVESLDASFRYPQDYQFYIQNFTALPLNTVVPPQRQATFEYSFIPAEPMGGRPFGLVINLNYKDLNGNVFQDAVFNQTVTVIEREDGLDGETIFMYMFLAGLGLLVIVGLHQLLESRKRKRPIQKVEMGTSSQNDVDMSWIPQETLNQINKASPRRLPRKRAQKRSVGSDE
# What was measured:
# [1] = target: Sec61β, C-terminally tagged with LgBiT (not stated | Oplophorus gracilirostris); test: split reporter (BiFC, NanoBiT); bimolecular luminescence complementation in living HeLa cells, 96-well plate, 24 h after co-transfection of one LgBiT and one SmBiT fusion plasmid (50 ng each); furimazine added, signal 4 min later; RLU normalised to the LgBiT fusion plus Halo-CS set to 1; forskolin (15 µM) lowered the rPKA-cPKA signal; digitonin plus trypsin eliminated the signals
# [2] = target: Sec61α, N-terminally tagged with LgBiT (Oplophorus gracilirostris | not stated); test: as above
# [3] = target: regulatory subunit of protein kinase A, C-terminally tagged with LgBiT (not stated | Oplophorus gracilirostris); test: as above
# [4] = target: regulatory subunit of protein kinase A, C-terminally tagged with LgBiT (not stated | Oplophorus gracilirostris); test: split reporter (BiFC, NanoBiT); synthetic peptide complementation: HeLa cells expressing a LgBiT fusion, furimazine, then 0.002% digitonin, then synthetic peptide (scrambled, actin, SmBiT 1-100 µM; HaBiT up to 100 nM); signal 4 min after the peptide; RLU normalised to the scrambled peptide set to 1
# [5] = target: Sec61β, C-terminally tagged with LgBiT (not stated | Oplophorus gracilirostris); test: as above
# [6] = target: Sec61α, C-terminally tagged with LgBiT (not stated | Oplophorus gracilirostris); test: as above
# [7] = target: Sec61α, N-terminally tagged with LgBiT (Oplophorus gracilirostris | not stated); test: as above
# [8] = target: TRAPα, C-terminally tagged with LgBiT (not stated | Oplophorus gracilirostris); test: as above
# [9] = target: TRAPβ, C-terminally tagged with LgBiT (not stated | Oplophorus gracilirostris); test: as above
# [10] = target: Sec61β, C-terminally tagged with LgBiT (not stated | Oplophorus gracilirostris); test: as above; remark: listed apart in the source
# [11] = target: Sec61α, C-terminally tagged with LgBiT (not stated | Oplophorus gracilirostris); test: as above; remark: listed apart in the source
# [12] = target: Sec61α, N-terminally tagged with LgBiT (Oplophorus gracilirostris | not stated); test: as above; remark: listed apart in the source
# [13] = target: TRAPα, C-terminally tagged with LgBiT (not stated | Oplophorus gracilirostris); test: as above; remark: listed apart in the source
# [14] = target: TRAPβ, C-terminally tagged with LgBiT (not stated | Oplophorus gracilirostris); test: as above; remark: listed apart in the source
# [15] = target: TRAPα, C-terminally tagged with LgBiT (not stated | Oplophorus gracilirostris); test: split reporter (BiFC, NanoBiT); bimolecular luminescence complementation in living HeLa cells, 96-well plate, 24 h after co-transfection of one LgBiT and one SmBiT fusion plasmid (50 ng each); furimazine added, signal 4 min later; RLU normalised to the LgBiT fusion plus Halo-CS set to 1; forskolin (15 µM) lowered the rPKA-cPKA signal; digitonin plus trypsin eliminated the signals
molecule,measurement,setting,value
"Sec63, N-terminally tagged with SmBiT (from UniProt Q9UGP8 1-760) (natural protein)","relative luminescence (RLU, Halo-CS control pair = 1)",[1],202 RLU
"Sec61β, N-terminally tagged with SmBiT (from UniProt P60468 1-96) (natural protein)","relative luminescence (RLU, Halo-CS control pair = 1)",[2],141 RLU
"catalytic subunit of protein kinase A, C-terminally tagged with SmBiT (from UniProt P17612 1-351) (enzyme)","relative luminescence (RLU, Halo-CS control pair = 1)",[3],613 RLU
synthetic HaBiT peptide (high affinity variant of SmBiT),fold activity over the SmBiT peptide,[4],10000 fold
same,luminescence relative to the scrambled peptide,[5],> 50 fold
same,luminescence relative to the scrambled peptide,[6],15 RLU
same,luminescence relative to the scrambled peptide,[7],> 50 fold
same,luminescence relative to the scrambled peptide,[8],> 50 fold
same,luminescence relative to the scrambled peptide,[9],> 50 fold
CVTGYRLFEEIL [synthetic SmBiT peptide (11 + 1 aa)],luminescence relative to the scrambled peptide,[10],> 10 fold
same,luminescence relative to the scrambled peptide,[11],2 RLU
same,luminescence relative to the scrambled peptide,[12],> 10 fold
same,luminescence relative to the scrambled peptide,[13],> 10 fold
same,luminescence relative to the scrambled peptide,[14],> 10 fold
B1,"relative luminescence (RLU, Halo-CS control pair = 1)",[15],91 RLU
B2,"relative luminescence (RLU, Halo-CS control pair = 1)",[2],62 RLU
